Patent publication US20180194839A1 (Novartis, published 2018)

Assays:
[1] = target: T1, recombinant human IL-18 (MBL Cat# B003-5) (human, UniProt Q14116 37-193); assay: ELISA, coated cytokine, Ab 10 µg/ml;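 note: antibodies incubated 3 h at room temperature on the coated wells, binding detected with alkaline phosphatase-conjugated anti-IgG secondary antibodies matching the species of each test antibody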
T1 construct: also called huIL-18
T1 sequence (looked up): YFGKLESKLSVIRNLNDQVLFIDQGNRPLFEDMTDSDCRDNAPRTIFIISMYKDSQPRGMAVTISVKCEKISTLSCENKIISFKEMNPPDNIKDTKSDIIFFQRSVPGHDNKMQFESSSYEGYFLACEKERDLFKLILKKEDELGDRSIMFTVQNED

[2] = target: T2, recombinant human IL-4 (R&D Systems Cat#204-IL/CF) (human, UniProt P05112 25-153); assay: ELISA, coated cytokine, Ab 10 µg/ml;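 note: antibodies incubated 3 h at room temperature on the coated wells, binding detected with alkaline phosphatase-conjugated anti-IgG secondary antibodies matching the species of each test antibody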
T2 construct: also called huIL-4
T2 sequence (looked up): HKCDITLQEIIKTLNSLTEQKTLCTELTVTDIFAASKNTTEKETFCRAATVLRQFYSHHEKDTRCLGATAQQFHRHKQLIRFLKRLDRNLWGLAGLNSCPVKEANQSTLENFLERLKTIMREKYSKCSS

[3] = target: T3, recombinant human IL-8 (R&D Systems Cat#208-IL-010/CF) (human, UniProt P10145 28-99); assay: ELISA, coated cytokine, Ab 10 µg/ml;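 note: antibodies incubated 3 h at room temperature on the coated wells, binding detected with alkaline phosphatase-conjugated anti-IgG secondary antibodies matching the species of each test antibody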
T3 construct: also called huIL-8
T3 sequence (looked up): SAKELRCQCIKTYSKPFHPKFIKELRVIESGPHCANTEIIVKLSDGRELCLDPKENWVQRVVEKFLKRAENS

[4] = target: T4, recombinant human IL-6 (R&D Systems Cat#206-IL-1010/CF) (human, UniProt P05231 30-212); assay: ELISA, coated cytokine, Ab 10 µg/ml;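 note: antibodies incubated 3 h at room temperature on the coated wells, binding detected with alkaline phosphatase-conjugated anti-IgG secondary antibodies matching the species of each test antibody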
T4 construct: also called huIL-6

[5] = target: T5, recombinant human IL-3 (R&D Systems Cat#203-IL/CF) (human, UniProt P08700 20-152); assay: ELISA, coated cytokine, Ab 10 µg/ml
T5 construct: also called huIL-3
T5 sequence (looked up): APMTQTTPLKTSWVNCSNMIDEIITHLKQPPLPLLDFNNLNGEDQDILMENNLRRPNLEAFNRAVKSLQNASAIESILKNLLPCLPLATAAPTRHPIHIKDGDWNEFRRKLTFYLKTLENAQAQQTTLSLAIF

[6] = target: T6, recombinant human IL-20 (Novartis) (human, UniProt Q9NYY1 25-176, limits assumed); assay: ELISA, coated cytokine, Ab 10 µg/ml
T6 construct: also called huIL-20
T6 sequence (looked up): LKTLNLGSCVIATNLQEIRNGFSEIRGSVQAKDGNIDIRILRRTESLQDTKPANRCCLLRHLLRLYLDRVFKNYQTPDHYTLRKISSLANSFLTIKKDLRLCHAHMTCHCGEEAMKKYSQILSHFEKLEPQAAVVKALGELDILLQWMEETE

[7] = target: T7, recombinant human TGFβ2 (Novartis) (human, UniProt P61812 303-414); assay: ELISA, coated cytokine, Ab 10 µg/ml
T7 construct: also called huTGFβ2
T7 sequence (looked up): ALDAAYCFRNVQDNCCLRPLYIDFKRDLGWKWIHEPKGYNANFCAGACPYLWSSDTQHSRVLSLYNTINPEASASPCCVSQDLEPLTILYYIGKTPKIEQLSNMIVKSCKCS

[8] = target: T8, recombinant human TNFα (Novartis) (human, UniProt P01375 77-233); assay: ELISA, coated cytokine, Ab 10 µg/ml
T8 construct: also called huTNFα

[9] = target: T9, recombinant rat IL-4 (R&D Systems Cat#504-RL/CF) (rat, UniProt P20096 25-147, limits assumed); assay: ELISA, coated cytokine, Ab 10 µg/ml
T9 sequence (looked up): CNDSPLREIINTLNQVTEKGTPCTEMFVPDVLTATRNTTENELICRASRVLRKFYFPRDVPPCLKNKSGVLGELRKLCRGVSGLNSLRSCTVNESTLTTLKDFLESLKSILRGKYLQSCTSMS

[10] = target: recombinant rat IL-12 (R&D Systems Cat#1760-RL/CF) (rat); assay: ELISA, coated cytokine, Ab 10 µg/ml
[11] = target: T10, recombinant rat IL-17A (SEQ ID NO: 85) (rat, UniProt Q61453 18-150); assay: ELISA, coated cytokine, Ab 10 µg/ml
T10 construct: also called rratIL-17A; rIL-17A
T10 sequence: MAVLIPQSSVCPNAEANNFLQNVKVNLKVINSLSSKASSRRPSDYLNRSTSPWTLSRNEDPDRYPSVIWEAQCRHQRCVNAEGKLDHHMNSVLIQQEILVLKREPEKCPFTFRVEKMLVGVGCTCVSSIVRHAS

[12] = target: T11, recombinant human IL-17A (SEQ ID NO: 76) (human, UniProt Q16552 24-155, limits assumed); assay: cell-based or functional assay
T11 sequence: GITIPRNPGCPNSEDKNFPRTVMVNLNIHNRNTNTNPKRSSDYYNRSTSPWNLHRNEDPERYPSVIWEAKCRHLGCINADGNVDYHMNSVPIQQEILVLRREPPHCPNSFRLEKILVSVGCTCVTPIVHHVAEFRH

[13] = target: T12, recombinant human IL-17A/F heterodimer (human, UniProt Q16552 24-155; Q96PD4 31-163, limits assumed); assay: competition ELISA: huIL-17A/F pre-incubated with antibody, binding to coated huIL-17RA
T12 construct: heterodimer of an IL-17A subunit and an IL-17F subunit; also called huIL-17A/F; rhuIL-17A/F
T12 sequence (looked up) 1: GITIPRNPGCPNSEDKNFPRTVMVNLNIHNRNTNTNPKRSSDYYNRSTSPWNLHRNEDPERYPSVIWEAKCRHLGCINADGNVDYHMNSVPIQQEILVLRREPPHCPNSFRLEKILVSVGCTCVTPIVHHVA
T12 sequence (looked up) 2: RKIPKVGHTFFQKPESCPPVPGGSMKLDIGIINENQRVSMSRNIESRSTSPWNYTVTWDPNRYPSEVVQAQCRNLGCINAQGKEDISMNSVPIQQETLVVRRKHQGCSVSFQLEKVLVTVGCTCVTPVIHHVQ

T8 sequence (P01375 77-233 limits assumed): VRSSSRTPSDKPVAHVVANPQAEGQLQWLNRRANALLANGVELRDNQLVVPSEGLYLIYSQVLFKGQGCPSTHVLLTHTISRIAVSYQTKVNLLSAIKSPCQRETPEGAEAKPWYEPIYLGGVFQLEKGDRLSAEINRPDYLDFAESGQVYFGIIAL

B1: XAB4 (antibody, human IgG1, kappa, V domains shown)
VH: EVQLVESGGDLVQPGGSLRLSCAASGFTFSSYWMSWVRQAPGKGLEWVANIKQDGSEKYYVDSVKGRFTISRDNAKNSLYLQMNSLRAEDTAVYYCARDRGSLYYWGQGTLVTVSS
VL: AIQLTQSPSSLSASVGDRVTITCRPSQGINWELAWYQQKPGKAPKLLIYDASSLEQGVPSRFSGSGSGTDFTLTISSLQPEDFATYYCQQFNSYPLTFGGGTKVEIKR
notes: also called MB435 N56Q
O.D. [1]: -0.001 O.D.
O.D. [2]: 0.047 O.D.
O.D. [3]: 0.018 O.D.
O.D. [4]: -0.015 O.D.
O.D. [5]: 0.167 O.D.
O.D. [6]: 0.039 O.D.
O.D. [7]: 0.018 O.D.
O.D. [8]: 0.009 O.D.
O.D. [9]: 0.026 O.D.
O.D. [10]: 0.009 O.D.
O.D. [11]: 3.48 O.D.
IC50, huIL-6 secretion by BJ cells; stimulus rhuIL-17A (0.5 nM) [12]: 0.55 nM
IC50 [13]: 154 nM

B2: XAB1 (antibody, human IgG1, kappa, V domains shown)
VH: EVQLVESGGDLVQPGGSLRLSCAASGFTFSSYWMSWVRQAPGKGLEWVANIKQDGSEKYYVDSVKGRFTISRDNAKNSLYLQMNSLRAEDTAVYYCARDRGSLYYWGQGTLVTVSS
VL: AIQLTQSPSSLSASVGDRVTITCRPSQGIISALAWYQQKPGKAPKLLIYDASSLENGVPSRFSGSGSGTDFTLTISSLQPEDFATYYCQQFNSYPLTFGGGTKVEIKR
notes: human IgG1/kappa monoclonal antibody; also called parental XAB1; XAB1 IgG
O.D. [1]: -0.086 O.D.
O.D. [2]: 0.057 O.D.
O.D. [3]: 0.058 O.D.
O.D. [4]: -0.044 O.D.
O.D. [5]: -0.049 O.D.
O.D. [6]: 0.335 O.D.
O.D. [7]: 0.146 O.D.
O.D. [8]: 0.289 O.D.
O.D. [9]: 0.017 O.D.
O.D. [10]: -0.007 O.D.
O.D. [11]: 1.2 O.D.
IC50, huIL-6 secretion by BJ cells; stimulus rhuIL-17A (0.5 nM) [12]: 4.97 nM
IC50 [13]: 301 nM
